# B1: Solute carrier family 22 member 6 (Homo sapiens) (protein)
# chain: MAFNDLLQQVGGVGRFQQIQVTLVVLPLLLMASHNTLQNFTAAIPTHHCRPPADANLSKNGGLEVWLPRDRQGQPESCLRFTSPQWGLPFLNGTEANGTGATEPCTDGWIYDNSTFPSTIVTEWDLVCSHRALRQLAQSLYMVGVLLGAMVFGYLADRLGRRKVLILNYLQTAVSGTCAAFAPNFPIYCAFRLLSGMALAGISLNCMTLNVEWMPIHTRACVGTLIGYVYSLGQFLLAGVAYAVPHWRHLQLLVSAPFFAFFIYSWFFIESARWHSSSGRLDLTLRALQRVARINGKREEGAKLSMEVLRASLQKELTMGKGQASAMELLRCPTLRHLFLCLSMLWFATSFAYYGLVMDLQGFGVSIYLIQVIFGAVDLPAKLVGFLVINSLGRRPAQMAALLLAGICILLNGVIPQDQSIVRTSLAVLGKGCLAASFNCIFLYTGELYPTMIRQTGMGMGSTMARVGSIVSPLVSMTAELYPSMPLFIYGAVPVAASAVTVLLPETLGQPLPDTVQDLESRWAPTQKEAGIYPRKGKQTRQQQEHQKYMVPLQASAQEKNGL
# Substrate: O=C(O)c1ccc(C(=O)O)c(-c2c3ccc(=O)cc-3oc3cc(O)ccc23)c1
# Test: TP_TRANSPORTER: uptake in OAT1-expressing CHO cells
# Assay type: functional, cell-based
protein,measurement,value
B1,Km,3.95 µM

# Source: ChEMBL document CHEMBL2074458, “Fluorescence-based assay for the interaction of small molecules with the human renal organic anion transporter 1” (Anal Biochem, 2000)
